In this data set the target is Gata1CF (UniProt P17679 249-311). In words: EMSA; 0.5 and 5 uM protein, 5 nM probe, 10 uM ZnSO4; 10 mM HEPES pH 7.9, 30 mM NaCl, 1 mM MgCl2, 20 uM EDTA, 10 mM DTT, 10 uM ZnSO4, 67 ug/mL acetylated BSA, 4% Ficoll; on ice 30 min. The note with it: protein: recombinant; label: 5' FAM.
Chain of Gata1CF (P17679 249-311): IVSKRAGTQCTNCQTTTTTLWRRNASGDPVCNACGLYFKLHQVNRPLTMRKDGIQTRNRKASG

B1: PP4 pentaprobe (ssDNA)
DNA: TATCCTACCCATTGGGCTCATCTGATCCATCCGGTCCCGTCCACTCGGCTATGTTATGCTGTATTGCAGTCGTGTCGCGTCGAGCTGCCCTAATCCCACC
For B1, the binding result was “binds”.

B2: PP2 pentaprobe (ssDNA)
DNA: TATCTTACTTTAGTTTCATTTAATTGTGTTGTACTCTCCTCTGCGTTCACTTAGCTTAACTTGGTTTGGCTTGATTTGACTTCAGTTGCGCTCTATTCTA
As to B2, the binding result was “binds”.

For the origin of these results see publication PMC4381397, “The recently identified modifier of murine metastable epialleles, Rearranged L-Myc Fusion, is involved in maintaining epigenetic marks at CpG island shores and enhancers”.
